Here are results for one molecule from PMC9701394, “Modified exosomal SIRPα variants alleviate white matter injury after intracerebral hemorrhage via microglia/macrophages” (Biomaterials Research, 2022).

The target of this test is T1, biotinylated CD47 (UniProt Q08722 19-141, biotin (by BirA ligase, on the Avi tag)).
T1 construct: CD47, IgSF domain; the SPR methods say only 'biotinylated CD47'. 'Purified as described above' would imply a His tag and a cleaved GST; also called CD47 IgSF domain
The test can be described thus: SPR; biotinylated CD47 (Rmax ~150 RU) captured on Biacore SA sensor chip at 25 °C; serial dilutions of SIRPα in HBS-P buffer; regeneration with 2 mol/L MgCl2; Langmuir binding model, Biacore T200. The conditions noted are these: both partners purified.

T1 sequence (Q08722 19-141): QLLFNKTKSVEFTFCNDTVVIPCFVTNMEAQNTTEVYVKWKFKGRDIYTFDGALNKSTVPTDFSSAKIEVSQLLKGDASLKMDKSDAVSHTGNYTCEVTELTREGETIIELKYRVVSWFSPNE

B1: wild-type SIRPα (SIRPα WT), soluble monomer (domain or fragment, human, UniProt P78324 31-148, looked up)
chain: EEELQVIQPDKSVLVAAGETATLRCTATSLIPVGPIQWFRGAGPGRELIYNQKEGHFPRVTTVSDLTKRNNMDFSIRIGNITPADAGTYYCVKFRKGSPDDVEFKSGAGTELSVRAKP
notes: signal regulatory protein α (SIRPα), human, N-terminal V-set Ig domain; also called wild-type human SIRPα; SIRPα WT monomer; source: E. coli BL-21(DE3), purified (Ni-NTA; GST removed with HRV 3C protease); not shown: GST, N-terminal, cleaved
B1: the affinity, expressed as Kd, was 365 nM and the “dissociation half-life (t1/2)” value amounted to 2.4 s.

Broadly, the Kd is the equilibrium constant for the complex coming apart. Read a low Kd as tighter binding.
